Assay type in all cases: cell-based, mouse
In one assay the test system is OR-S6/S79. Briefly: CRE-luciferase reporter gene assay, OR-S6/S79. Particulars: 293T cells expressing RTP1 variant. As for the experimental part:
Four ORs (S6/79, S18, S46 and S50) previously assayed using other techniques (see, e.g., Malnic, B., et al. (1999) Cell 96, 713-723; herein incorporated by reference in its entirety) were tested against an assay panel of aliphatic alcohols, aldehydes and acids and some other odorants. Additionally, five “orphan” class I ORs (MOR23-1, MOR31-4, MOR31-6, MOR32-5 and MOR32-11) whose cognate ligands were unknown were tested. At a suprathreshold concentration of 100 uM, all these ORs were odorant selective, responding to only a small subset of the odorants tested (see FIG. 11A). This specificity was retained at lower, more physiologically relevant concentrations. Many of these ORs responded to odorants present in micromolar concentrations. The cell-surface expression of these ORs by living-cell immunofluorescence were evaluated. Some ORs (S18, MOR31-4, MOR31-6 and MOR32-5) were strongly expressed while other ORs (S6, S50, MOR23-1, MOR32-11) were weakly expressed (see FIG. 12). The present invention is not limited to a particular mechanism. Indeed, an understanding of the mechanism is not necessary to practice the present invention. […] Finally, two additional orphan class II ORs, MOR203-1 and olfr62, were tested against a panel of 139 odorants. […] Olfr62 responded to coumarine and piperonal (see FIG. 11C). […] When parental 293T cells for these ORs were used in this luciferase assay, little or no response to the odorants was observed. The present invention is not limited to a particular mechanism. Indeed, an understanding of the mechanism is not necessary to practice the present invention.
An expression system has been established that permits rapid identification of ligands for ORs. This system was tested with twelve ORs. Four of the tested ORs (S6/S79, S18, S46, and S50) were expressed in single olfactory neurons responding to aliphatic odorants (see, e.g., Malnic, B., et al. (1999) Cell 96, 713-723; herein incorporated by reference in its entirety). The response profiles of OR-S50, but not that of OR-S18 agreed with the previous report (see, e.g., Malnic, B., et al. (1999) Cell 96, 713-723; herein incorporated by reference in its entirety). […] In experiments conducted during the course of the present invention, OR-S6/S79 responded to nonanedioic acid but not to heptanoic acid or octanoic acid. The present invention is not limited to a particular mechanism. […] When multiple single olfactory neurons that expressed the same OR were recorded against the same set of odorants using calcium imaging, their response profiles were similar but different (see, e.g., Bozza, T., et al. (2002) J Neurosci 22, 3033-3043; herein incorporated by reference in its entirety).
Dual-Glo system (Promega) for luciferase assay was used. […] Luminescence was measured using Wallac Victor 1420 (Perkin-Elmer). […]
In general terms: In a reporter assay the amount or activity of a reporter protein is the signal.

For a further assay, the system named is olfr62. The assay can be described thus: CRE-luciferase reporter gene assay, olfr62. Particulars: 293T cells expressing RTP1 variant. An outline of the steps: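 Receptor-transfected 293T cells carrying CRE-luciferase plus SV40-Renilla control, switched to CD293 medium 12 h post-transfection, then exposed to odorants for 4 h at 37 °C. Signal is dual-luciferase normalized activity, [Luc(N) − Luc(0)]/Renilla.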

A further assay concerns S6. The assay can be described thus: Living-cell staining of cell-surface S6. As to conditions: accessory protein co-transfected in 293T cells. As for the experimental part: 293T cells were maintained in minimal essential medium containing 10% fetal bovine serum (M10). Lipofectamine 2000 (Invitrogen) was used for transfection. In live-cell staining, 16 hours after transfection, cells were incubated in M10 containing anti rhodopsin antibody, 4D2 (see, e.g., Laird, D. W., and Molday, R. S. (1988) Invest Opthalmol V is Sci 29, 419-428; herein incorporated by reference in its entirety) and 15 mM NaN3 at 4 degrees C. for 1 hour. After washing, cells were incubated with Cy3-conjugated anti mouse IgG (Jackson Immunologicals), washed and mounted. For FACS analysis, 4D2 and PE-conjugated anti mouse IgG (Jackson Immunologicals) were used to monitor the Rho tagged receptor expression. Anti HA rabbit antibodies (Sigma) and Alexa 488 conjugated anti rabbit IgG (Molecular Probes) was used to stain the HA-β2 adrenergic receptor. To establish the Hana3a cells, 1 ug/ml of puromycin was used for selection. 96 colonies were picked and assayed using luciferase assay using OREG.

B1: RTP1-A1: RTP1 variant from deleting portions of RTP1-A; murine SEQ ID NO: 46, human SEQ ID NO: 47 (protein, listed as Mus musculus)
chain: MCKSVTTGEWKKVFYEKMEEVKPADSWDFIIDPNLKHNVLAPGWKQYLELHASGRFHCSWCWHTWQSPHVVILFHMYLDKAQRAGSVRMRVFKQLCYECGTARLDESSMLEENIESLVDNLITSLREQCYGERGGHYRIHVASRQDNRRHRGEFCEACQEGIVHWKPSEKLLEEEATTYTFSRAPSPTKPQAETGSGCNFCSIPWCLFWATVLMLIIYLQFSFRTSV
With B1, the “S6 activity as indicated by luciferase expression” value in the assay with OR-S6/S79 was “Increased enhancement”. Besides, in the assay with olfr62, the “OLFR62 activity as indicated by luciferase expression” value is on record as “Increased enhancement”. Moreover, the “cell-surface expression of S6” value in the assay with S6 was “Increased cell-surface staining”.
